The target in assay [1] is E. coli thioredoxin reductase (Escherichia coli) (UniProt P0A9P4).
Assay [2] has the same target. This is another data set of the same source.

A value given as a limit tells only on which side of the number the result lay.

UniProt P0A9P4, sequence (P0A9P4 whole entry): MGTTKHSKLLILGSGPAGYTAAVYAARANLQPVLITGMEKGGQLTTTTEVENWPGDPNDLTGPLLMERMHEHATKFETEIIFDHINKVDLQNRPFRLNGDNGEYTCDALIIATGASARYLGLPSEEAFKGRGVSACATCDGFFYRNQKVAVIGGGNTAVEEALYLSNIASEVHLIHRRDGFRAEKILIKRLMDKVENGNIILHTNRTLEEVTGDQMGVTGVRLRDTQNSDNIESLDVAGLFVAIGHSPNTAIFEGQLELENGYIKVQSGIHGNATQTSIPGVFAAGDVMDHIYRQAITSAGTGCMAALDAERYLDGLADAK

“Escherichia coli thioredoxin, wild type (from UniProt P0AA25 1-109) (natural protein)”: the kcat of the reduction of the Trx variant by TrxR (Michaelis-Menten kinetics, DTNB/NADPH assay) in assay [1] was found to be 10 s⁻¹. Further, in assay [2], the kcat/KM of the reduction of Trx by TrxR is more than 1e+06 M⁻¹ s⁻¹.

Source of the values: paper PMC4485320.
